According to article PMC12443421:

Key:
[1] = molecular target: T1, KDM5A-MutR (UniProt P29375 1-801, R210A;R217A;R219A;R220A;R232A;R264A;R265A;R266A;R271A;R280A;R282A); assay: EMSA; Nucleosome EMSA: 100 nM nucleosome, 50 mM HEPES pH 7.5, 50 mM KCl, 1 mM BME, 0.01% Tween-20, 0.01% BSA, 5% sucrose, 1 h on ice, gel at 4 C; DNA EMSA: 100 nM DNA, TE with 10% glycerol, gel at 4 C; details: protein: recombinant; tags: 6xHis removed by TEV; blunt
T1 sequence: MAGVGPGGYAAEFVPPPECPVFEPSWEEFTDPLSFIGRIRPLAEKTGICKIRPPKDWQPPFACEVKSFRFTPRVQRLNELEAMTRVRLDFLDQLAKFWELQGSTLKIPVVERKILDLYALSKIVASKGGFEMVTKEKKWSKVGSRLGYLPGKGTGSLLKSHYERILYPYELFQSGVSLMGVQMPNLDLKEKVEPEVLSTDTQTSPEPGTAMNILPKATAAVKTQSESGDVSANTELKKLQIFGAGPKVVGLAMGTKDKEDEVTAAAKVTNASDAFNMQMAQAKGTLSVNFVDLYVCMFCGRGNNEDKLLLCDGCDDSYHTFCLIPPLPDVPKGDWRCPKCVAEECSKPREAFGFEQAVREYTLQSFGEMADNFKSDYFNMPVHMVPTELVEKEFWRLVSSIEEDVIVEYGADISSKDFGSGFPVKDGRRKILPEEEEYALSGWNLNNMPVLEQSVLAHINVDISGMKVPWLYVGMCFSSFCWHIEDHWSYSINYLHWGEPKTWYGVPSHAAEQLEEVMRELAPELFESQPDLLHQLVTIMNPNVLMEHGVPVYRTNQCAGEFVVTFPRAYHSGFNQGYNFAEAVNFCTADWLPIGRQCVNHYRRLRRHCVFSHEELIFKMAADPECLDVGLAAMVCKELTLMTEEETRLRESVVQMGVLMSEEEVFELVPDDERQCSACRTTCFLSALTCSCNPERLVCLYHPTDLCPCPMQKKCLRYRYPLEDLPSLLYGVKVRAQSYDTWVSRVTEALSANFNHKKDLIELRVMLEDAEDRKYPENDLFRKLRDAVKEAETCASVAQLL

[2] = molecular target: T2, KDM5A-K152E (UniProt P29375 1-801, K152E); assay: as above; details: protein: recombinant; tags: 6xHis removed by TEV; blunt
T2 sequence: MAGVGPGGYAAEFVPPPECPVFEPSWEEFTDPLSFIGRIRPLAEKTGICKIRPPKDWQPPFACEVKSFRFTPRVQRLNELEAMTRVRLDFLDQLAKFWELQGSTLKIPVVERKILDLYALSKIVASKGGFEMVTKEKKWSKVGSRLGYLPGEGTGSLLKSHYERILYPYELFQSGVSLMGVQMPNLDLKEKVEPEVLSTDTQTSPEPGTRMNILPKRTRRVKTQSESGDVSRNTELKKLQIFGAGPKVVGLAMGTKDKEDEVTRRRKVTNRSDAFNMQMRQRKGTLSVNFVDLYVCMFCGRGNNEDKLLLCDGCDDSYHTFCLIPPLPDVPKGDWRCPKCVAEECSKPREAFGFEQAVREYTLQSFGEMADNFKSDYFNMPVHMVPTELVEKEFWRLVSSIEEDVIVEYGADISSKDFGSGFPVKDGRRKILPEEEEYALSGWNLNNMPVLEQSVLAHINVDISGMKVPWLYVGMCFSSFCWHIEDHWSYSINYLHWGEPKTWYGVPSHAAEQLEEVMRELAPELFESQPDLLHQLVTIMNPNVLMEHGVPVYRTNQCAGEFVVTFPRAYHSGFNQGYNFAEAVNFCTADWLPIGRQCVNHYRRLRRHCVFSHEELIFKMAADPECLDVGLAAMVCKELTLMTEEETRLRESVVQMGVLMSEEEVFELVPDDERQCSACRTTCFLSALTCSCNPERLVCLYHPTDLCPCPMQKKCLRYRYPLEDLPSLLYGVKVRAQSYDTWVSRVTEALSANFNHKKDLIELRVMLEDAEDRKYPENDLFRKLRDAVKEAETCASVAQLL

B1: ARID-C1 (dsDNA)
DNA 1: GGGCTCCCGCCCCACGAAAAG
DNA 2: CTTTTCGTGGGGCGGGAGCCC
With B1 as the binder, how does the binding signal [1] read?
The binding signal was ~3 fold lower affinity than KDM5A-CAT.

What about the binding signal [2] of the same binder?
Its binding signal is ~3 fold lower affinity than KDM5A-CAT.
